We go through one molecule from paper PMC7227451 (Cellular and Molecular Immunology, 2020).

In this test the target is T1, SARS-CoV-2 RBD-hFc (SARS-CoV-2, UniProt P0DTC2).
T1 construct: not shown: Fc (human IgG1), C-terminal, kept
The test can be described thus: ELISA. The following applies: both partners purified. For orientation: In an ELISA, binding on a coated surface is turned into a signal by an enzyme label.

B1: 80R (antibody, V domains shown)
VH: EVQLVQSGGGVVQPGKSLRLSCAASGFAFSSYAMHWVRQAPGKGLEWVAVISYDGSNKYYADSVKGRFTISRDNSKNTLYLQMNSLRAEDTAVYYCARDRSYYLDYWGQGTLVTVSS
VL: ETTLTQSPATLSLSPGERATLSCRASQSVRSNLAWYQQKPGQAPRPLIYDASTRATGIPDRFSGSGSGTDFTLTISRLEPEDFAVYYCQQRSNWPPTFGQGTKVEVK
As for B1, the binding result was “no binding”.
